{"source": "paper PMC5338832", "about": "(PLoS Pathogens, 2017)", "key": {"T117v2 epitope-scaffold [1]": {"molecular_target": "T1, T117v2 epitope-scaffold (synthetic construct (designed scaffold …))", "T1 construct": "also called T117v2 scaffold; scaffolded MPER construct; source: expressed and purified as previously described [35]", "T1 chain": "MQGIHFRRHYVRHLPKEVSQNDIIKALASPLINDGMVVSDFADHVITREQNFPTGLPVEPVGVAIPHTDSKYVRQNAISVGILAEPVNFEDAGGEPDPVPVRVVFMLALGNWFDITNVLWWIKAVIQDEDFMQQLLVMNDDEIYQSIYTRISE", "assay": "SPR; ProteOn XPR36, GLC chip with amine-coupled capture antibody (Human Antibody Capture Kit) for ligand capture; 1x HBS-EP+ pH 7.4 with 1 mg/ml BSA; Langmuir model; Table 1 heads the IgGs as 'Analyte'", "details": "both partners purified"}, "T117v2 epitope-scaffold [2]": {"molecular_target": "T1, T117v2 epitope-scaffold", "assay": "SPR", "details": "both partners purified"}}}
{"binder": "10E8 IgG mutant 3 (antibody, V domains shown, IgG; also called 10E8 mut 3; copies: 2 + 2) VH: EVQLVESGGGLVKPGGSLRLSCSASGFDFDNAWMTWVRQPPGKGLEWVGRITGPGEGWSVDYAAPVEGRFTISRLNSINFLYLEMNNLRMEDSGLYFCARTGKYYDFWSGYPPGEEYFQDWGRGTLVTVSS VL: SYELTQETGVSVALGDTVTITCEGDSLESHYASWYQKKPGQAPILLFYGDDNRPSGVPDRFSGDADGNEASLTIDGAQAEDDAEYYCSSRDKSGSRLSVFGGGTKLTVL", "values": [{"measurement": "Kd", "setting": "T117v2 epitope-scaffold [1]", "result": 0.379, "unit": "nM"}, {"measurement": "koff", "setting": "T117v2 epitope-scaffold [1]", "result": 0.000211, "unit": "s⁻¹"}, {"measurement": "kon", "setting": "T117v2 epitope-scaffold [1]", "result": 559000, "unit": "M⁻¹ s⁻¹"}]}
{"binder": "10E8 IgG mutant 5 (antibody, V domains shown, IgG; also called 10E8 mut 5; copies: 2 + 2) VH: EVQLVESGGGLVKPGGSLRLSCSASGFDFDNAWMTWVRQPPGKGLEWVGRITGPGEGWSVDYAAPVEGRFTISRLNSINFLYLEMNNLRMEDSGLYFCARTGKYYDFWSGYPPGEEYFQDWGRGTLVTVSS VL: SYELTQETGVSVALGRTVTITCRGDSLASHAASWYQKKPGQAPILLFYGKNNRPSGVPDRFSGSASGNRASLTISGAQAEDDAEYYCSSRDKSGSRLSVFGGGTKLTVL", "values": [{"measurement": "Kd", "setting": "T117v2 epitope-scaffold [1]", "result": 0.123, "unit": "nM"}, {"measurement": "koff", "setting": "T117v2 epitope-scaffold [1]", "result": 0.00016, "unit": "s⁻¹"}, {"measurement": "kon", "setting": "T117v2 epitope-scaffold [1]", "result": "1.3e+06", "unit": "M⁻¹ s⁻¹"}]}
{"binder": "10E8 IgG mutant 2 (antibody, V domains shown, IgG; also called 10E8 mut 2; copies: 2 + 2) VH: EVQLVESGGGLVKPGGSLRLSCSASGFDFDNAWMTWVRQPPGKGLEWVGRITGPGEGWSVDYAAPVEGRFTISRLNSINFLYLEMNNLRMEDSGLYFCARTGKYYDFWSGYPPGEEYFQDWGRGTLVTVSS VL: SYELTQETGVSVALGDTVTITCEGDSLESHYASWYQKKPGQAPILLFYGKNNRPSGVPDRFSGSASGNEASLTISGAQAEDDAEYYCSSRDKSGSRLSVFGGGTKLTVL", "values": [{"measurement": "Kd", "setting": "T117v2 epitope-scaffold [2]", "result": 0.0164, "unit": "nM"}, {"measurement": "koff", "setting": "T117v2 epitope-scaffold [2]", "result": "4.6e-05", "unit": "s⁻¹"}, {"measurement": "kon", "setting": "T117v2 epitope-scaffold [2]", "result": "2.8e+06", "unit": "M⁻¹ s⁻¹"}]}
{"binder": "10E8 IgG mutant 1 (antibody, V domains shown, also called 10E8 mut 1; copies: 2 + 2) VH: EVQLVESGGGLVKPGGSLRLSCSASGFDFDNAWMTWVRQPPGKGLEWVGRITGPGEGWSVDYAAPVEGRFTISRLNSINFLYLEMNNLRMEDSGLYFCARTGKYYDFWSGYPPGEEYFQDWGRGTLVTVSS VL: SYELTQETGVSVALGQTVTITCQGDSLRSHYASWYQKKPGQAPILLFYGKNNRPSGVPDRFSGSASGNTASLTISGAQAEDDAEYYCSSRDKSGSRLSVFGGGTKLTVL", "values": [{"measurement": "Kd", "setting": "T117v2 epitope-scaffold [1]", "result": 0.0112, "unit": "nM"}, {"measurement": "koff", "setting": "T117v2 epitope-scaffold [1]", "result": "4e-05", "unit": "s⁻¹"}, {"measurement": "kon", "setting": "T117v2 epitope-scaffold [1]", "result": "3.57e+06", "unit": "M⁻¹ s⁻¹"}]}
